In patent US20240132883A1, “RNA-TRIGGERED PROTEIN CLEAVAGE AND APPLICATIONS BY THE CRISPR CAS7-11-CSX29 COMPLEX” (Massachusetts Institute of Technology, published 2024):
Entries after “also recorded” stand apart in the source; their conditions may differ. Like-named read-outs stand apart in the source and are kept apart here. Each block holds one molecule with its values, some of them ahead of it.

Assays:
[1] = target: N-terminally FLAG-tagged citrine-Csx30-degron reporter (Desulfonema ishimotonii); assay: cell-based or functional assay
[2] = tested on: Cas7-11-Csx29 complex (mammalian codon-optimized) (Desulfonema ishimotonii); assay: cell_activity; conditions: HEK293FT, citrine-Csx30-DHFR degron reporter
[3] = tested on: T1, D. ishimotonii Csx30, full-length
T1 sequence: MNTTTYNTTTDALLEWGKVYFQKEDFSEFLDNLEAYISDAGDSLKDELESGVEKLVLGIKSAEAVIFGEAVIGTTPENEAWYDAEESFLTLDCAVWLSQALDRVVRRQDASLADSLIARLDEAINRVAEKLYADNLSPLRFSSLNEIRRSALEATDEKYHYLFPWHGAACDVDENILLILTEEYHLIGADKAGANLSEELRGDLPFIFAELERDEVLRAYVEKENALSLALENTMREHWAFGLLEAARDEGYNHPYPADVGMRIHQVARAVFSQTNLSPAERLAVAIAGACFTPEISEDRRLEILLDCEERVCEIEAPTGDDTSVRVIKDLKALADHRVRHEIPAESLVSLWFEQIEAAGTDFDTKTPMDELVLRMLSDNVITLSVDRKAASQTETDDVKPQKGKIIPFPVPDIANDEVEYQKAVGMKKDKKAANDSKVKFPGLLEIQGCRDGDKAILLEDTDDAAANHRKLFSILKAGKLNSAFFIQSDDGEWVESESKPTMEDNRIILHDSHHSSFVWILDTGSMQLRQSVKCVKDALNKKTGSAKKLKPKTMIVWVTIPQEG

[4] = target: T2, N-terminal fragment of Csx30 (residues 1-427) (Desulfonema ishimotonii); assay: gel filtration (Superdex 200 Increase) and SDS-PAGE after cleavage by dCas7-11-crRNA-Csx29-tgRNA
T2 construct: Made by Csx29 cleavage of Csx30 in the gel-filtration experiment; expressed as such in the growth assays; also called Csx30-1
T2 chain: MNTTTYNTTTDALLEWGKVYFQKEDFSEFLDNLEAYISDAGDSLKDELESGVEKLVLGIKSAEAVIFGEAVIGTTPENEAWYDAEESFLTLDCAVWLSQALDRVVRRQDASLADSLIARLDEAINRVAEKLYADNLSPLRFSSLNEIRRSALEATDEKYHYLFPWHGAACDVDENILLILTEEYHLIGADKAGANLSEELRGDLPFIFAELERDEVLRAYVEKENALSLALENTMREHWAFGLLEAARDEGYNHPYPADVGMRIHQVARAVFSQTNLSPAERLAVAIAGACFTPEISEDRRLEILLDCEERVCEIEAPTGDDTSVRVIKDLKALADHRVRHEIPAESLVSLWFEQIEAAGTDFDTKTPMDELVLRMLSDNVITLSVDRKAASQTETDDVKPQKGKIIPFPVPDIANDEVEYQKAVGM

[5] = target: T3, D. ishimotonii Csx30, full-length
T3 chain: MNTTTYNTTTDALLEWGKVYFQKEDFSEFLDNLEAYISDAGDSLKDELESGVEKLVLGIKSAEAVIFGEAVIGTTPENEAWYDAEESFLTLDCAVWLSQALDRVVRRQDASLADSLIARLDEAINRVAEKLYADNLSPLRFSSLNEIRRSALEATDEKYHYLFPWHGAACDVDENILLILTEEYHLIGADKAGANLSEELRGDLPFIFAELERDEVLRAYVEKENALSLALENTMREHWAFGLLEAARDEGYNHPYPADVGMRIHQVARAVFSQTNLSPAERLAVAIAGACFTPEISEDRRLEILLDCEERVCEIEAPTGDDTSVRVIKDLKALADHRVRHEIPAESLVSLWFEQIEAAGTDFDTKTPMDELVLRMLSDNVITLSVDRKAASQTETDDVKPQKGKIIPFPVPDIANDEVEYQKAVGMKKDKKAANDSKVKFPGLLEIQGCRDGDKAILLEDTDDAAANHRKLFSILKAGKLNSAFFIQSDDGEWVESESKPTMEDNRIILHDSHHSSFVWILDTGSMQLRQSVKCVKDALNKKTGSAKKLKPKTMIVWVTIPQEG

[6] = target: T4, dCas7-11-Csx29 complex (Cas7-11 D429A/D654A with Csx29) (Desulfonema ishimotonii); assay: structure; cryo-EM 2.84 A; guide-target duplex with U4/C10 flipped out; PFS C(-1) and A(-2) contacted; no PAM; 1 mM MgCl2; conditions: tags: MBP-Cas7-11-His6; His6-Twin-Strep-SUMO-Csx29
Procedure: (§1) The Cas7-11-crRNA-Csx29-tgRNA complex was reconstituted by mixing the purified Cas7-11-crRNA-Csx29 complex and the target RNA, at a molar ratio of 1:4. The complex was purified by size-exclusion chromatography on a Superose 6 Increase 10/300 column (GE Healthcare), equilibrated with buffer E (20 mM HEPES-NaOH, pH 7.0, 150 mM NaCl, 1 mM MgCl₂, and 1 mM DTT). The peak fraction containing Cas7-11-crRNA-Csx29-tgRNA was analyzed by TBE-urea gel, and concentrated to an A₂₆₀ of 3.0, using an Amicon Ultra-4 Centrifugal Filter Unit (MWCO 50 kDa). Cryo-EM grids were glow-discharged using PIB-10 Ion Bombarder (JEOL, Japan) with 10 mA current for 3 min. The sample (3 μL) was applied to freshly glow-discharged Au 300 mesh R1.2/1.3 grids (Quantifoil) in a Vitrobot Mark IV (FEI) at 4° C. under 100% humidity conditions, and the excess solution of the sample was blotted with filter paper (Agar Scientific) with a waiting time of 10 s and a blotting time of 4 s. The grids were plunge-frozen into liquid ethane cooled at liquid nitrogen temperature. […] The sample was applied onto freshly glow-discharged Au 300 mesh R0.6/1 grids (Quantifoil) in a Vitrobot Mark IV under similar conditions to those for the Cas7-11-crRNA-Csx29-tgRNA complex. […] Micrographs were recorded at a nominal magnification of ×105,000 with a pixel size of 0.83 Å in a total exposure of 48 e⁻/Å² per 48 frames with exposure time of 2.5 s. […]

[7] = target: T4, dCas7-11-Csx29 complex (Cas7-11 …); assay: structure; cryo-EM 2.49 A, target-free; 5' tag anchored by Cas7.1/Cas7.2; conditions: tags: MBP-Cas7-11-His6; His6-Twin-Strep-SUMO-Csx29
Procedure: as §1

T4 sequence (chain, as listed by the source D429A D654A D429A D654A): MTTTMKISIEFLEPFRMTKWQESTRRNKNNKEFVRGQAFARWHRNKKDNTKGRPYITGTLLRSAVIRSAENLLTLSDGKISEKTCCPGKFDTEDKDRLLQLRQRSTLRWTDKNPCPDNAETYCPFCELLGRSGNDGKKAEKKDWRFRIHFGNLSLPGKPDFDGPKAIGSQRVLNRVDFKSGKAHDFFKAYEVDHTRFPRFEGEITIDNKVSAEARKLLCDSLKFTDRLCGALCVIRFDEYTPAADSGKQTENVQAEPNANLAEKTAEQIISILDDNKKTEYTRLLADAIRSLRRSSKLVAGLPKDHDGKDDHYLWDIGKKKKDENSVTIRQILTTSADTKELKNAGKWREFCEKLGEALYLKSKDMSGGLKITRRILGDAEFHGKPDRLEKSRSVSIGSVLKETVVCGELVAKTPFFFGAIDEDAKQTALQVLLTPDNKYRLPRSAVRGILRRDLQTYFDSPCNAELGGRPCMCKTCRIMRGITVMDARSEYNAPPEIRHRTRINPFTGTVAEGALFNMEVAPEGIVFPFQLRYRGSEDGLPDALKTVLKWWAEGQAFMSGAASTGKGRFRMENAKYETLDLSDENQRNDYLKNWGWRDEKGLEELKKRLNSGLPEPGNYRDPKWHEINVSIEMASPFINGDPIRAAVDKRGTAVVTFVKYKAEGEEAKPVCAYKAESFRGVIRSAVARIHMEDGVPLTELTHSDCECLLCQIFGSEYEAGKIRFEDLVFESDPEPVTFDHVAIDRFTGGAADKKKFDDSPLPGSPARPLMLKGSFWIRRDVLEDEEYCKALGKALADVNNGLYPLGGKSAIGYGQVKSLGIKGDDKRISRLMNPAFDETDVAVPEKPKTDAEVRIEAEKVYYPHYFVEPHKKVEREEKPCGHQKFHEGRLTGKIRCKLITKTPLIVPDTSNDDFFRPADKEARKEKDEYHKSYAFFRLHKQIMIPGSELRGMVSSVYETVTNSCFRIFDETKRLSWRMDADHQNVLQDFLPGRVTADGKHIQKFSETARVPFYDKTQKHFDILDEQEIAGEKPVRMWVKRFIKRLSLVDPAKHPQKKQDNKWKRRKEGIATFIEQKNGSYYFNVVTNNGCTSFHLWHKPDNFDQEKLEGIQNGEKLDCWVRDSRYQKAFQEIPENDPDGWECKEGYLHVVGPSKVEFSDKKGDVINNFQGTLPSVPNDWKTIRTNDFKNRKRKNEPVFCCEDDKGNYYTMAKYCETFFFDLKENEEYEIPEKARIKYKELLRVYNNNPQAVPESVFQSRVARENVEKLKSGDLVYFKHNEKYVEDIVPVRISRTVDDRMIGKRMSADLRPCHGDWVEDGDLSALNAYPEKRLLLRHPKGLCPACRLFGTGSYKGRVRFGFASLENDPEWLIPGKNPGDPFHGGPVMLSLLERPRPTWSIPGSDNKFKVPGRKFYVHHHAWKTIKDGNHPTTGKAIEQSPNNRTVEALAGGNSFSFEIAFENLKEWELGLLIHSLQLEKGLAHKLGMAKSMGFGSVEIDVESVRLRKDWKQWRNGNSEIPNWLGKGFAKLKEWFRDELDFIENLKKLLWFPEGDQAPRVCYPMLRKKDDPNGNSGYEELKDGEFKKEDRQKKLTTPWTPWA
Cas7-11-Csx29 complex (mammalian codon-optimized) (Desulfonema ishimotonii), sequence (chain, as listed by the source): as the sequence (chain, as listed by the source D429A D654A D429A D654A) above, with A429D, A654D counted along it

citrine fluorescence in HEK293FT cells [1]: 3 fold
Molecule: Csx29, mammalian codon-optimized, expressed in HEK293FT cells with Cas7-11 (enzyme)

Molecule: Gluc-targeting guide RNA ; Gaussia luciferase mRNA target
activity (fold citrine fluorescence) [2]: 3

Molecule: Csx29 H615A/C658A (catalytically inactivated Csx29)
in vitro cleavage of Csx30 (SDS-PAGE) [3]: The H615A/C658A mutations in Csx29 abolished the Csx30 cleavage

binding result [4]: no binding
B1: C-terminal fragment of Csx30 (residues 428-565) (other)
chain: KKDKKAANDSKVKFPGLLEIQGCRDGDKAILLEDTDDAAANHRKLFSILKAGKLNSAFFIQSDDGEWVESESKPTMEDNRIILHDSHHSSFVWILDTGSMQLRQSVKCVKDALNKKTGSAKKLKPKTMIVWVTIPQEG
notes: Made by Csx29 cleavage of Csx30; also called Csx30-2

B2: D. ishimotonii Csx29, expressed as His6-Twin-Strep-SUMO-Csx29 (protein)
chain: HHHHHHMSNPIRDIQDRLKTAKFDNKDDMMNLASSLYKYEKQLMDSSEATLCQQGLSNRPNSFSQLSQFRDSDIQSKAGGQTGKFWQNEYEACKNFQTHKERRETLEQIIRFLQNGAEEKDADDLLLKTLARAYFHRGLLYRPKGFSVPARKVEAMKKAIAYCEIILDKNEEESEALRIWLYAAMELRRCGEEYPENFAEKLFYLANDGFISELYDIRLFLEYTEREEDNNFLDMILQENQDRERLFELCLYKARACFHLNQLNDVRIYGESAIDNAPGAFADPFWDELVEFIRMLRNKKSELWKEIAIKAWDKCREKEMKVGNNIYLSWYWARQRELYDLAFMAQDGIEKKTRIADSLKSRTTLRIQELNELRKDAHRKQNRRLEDKLDRIIEQENEARDGAYLRRNPPCFTGGKREEIPFARLPQNWIAVHFYLNELESHEGGKGGHALIYDPQKAEKDQWQDKSFDYKELHRKFLEWQENYILNEEGSADFLVTLCREIEKAMPFLFKSEVIPEDRPVLWIPHGFLHRLPLHAAMKSGNNSNIEIFWERHASRYLPAWHLFDPAPYSREESSTLLKNFEEYDFQNLENGEIEVYAPSSPKKVKEAIRENPAILLLLCHGEADMTNPFRSCLKLKNKDMTIFDLLTVEDVRLSGSRILLGACESDMVPPLEFSVDEHLSVSGAFLSHKAGEIVAGLWTVDSEKVDECYSYLVEEKDFLRNLQEWQMAETENFRSENDSSLFYKIAPFRIIGFPAE
cleavage of Csx30 within the Csx30-Csx31-DiRpoE complex (gel filtration, SDS-PAGE) [5]: Like isolated Csx30, Csx30 in the Csx30-Csx31-DiRpoE complex was cleaved by the Cas7-11-Csx29 complex
in vitro cleavage of Csx30 (SDS-PAGE) [5]: Cas7-11-crRNA-Csx29 cleaves Csx30 into two fragments, Csx30-1 (-50 kDa) and Csx30-2 (-15 kDa), only in the presence of the tgRNA; also recorded: the D429A/D654A catalytic mutations in Cas7-11 ... unexpectedly, improved the Csx30 cleavage by Csx29
in vitro cleavage of Csx30 (SDS-PAGE) with target RNAs TR, CTR, NTR [5]: Csx30 was cleaved by the Cas7-11-Csx29 complex efficiently in the presence of CTR, but not TR and NTR

B3: crRNA (38 nt, 15-nt 5' tag + 23-nt spacer) ; target RNA with non-matching PFS (tgRNA/CTR) (ssRNA ; ssRNA)
RNA 1: UUGAUGUCACGGAACCUUUGUUGUCUUCGACAUGGGUA
RNA 2: GGAUUACCCAUGUCGAAGACAACAAAGCAAGGC
binding result [6]: binds

B4: crRNA (38 nt, 15-nt 5' tag + 23-nt spacer) (ssRNA)
RNA: UUGAUGUCACGGAACCUUUGUUGUCUUCGACAUGGGUA
binding result [7]: binds
